Assay results as given in patent US20160136262A1.

How the values were obtained:
[1] = target: T1, H1-mini2-cluster1+5+6-GCN4 without leader sequence and with FLAG-thrombin-foldon-HIS; assay: ELISA/HTRF, HEK293F; average; conditions: remark: other sources report otherwise
[2] = target: T1, H1-mini2-cluster1+5+6-GCN4 without …; assay: ELISA/HTRF, P. pastoris; average; conditions: remark: other sources report otherwise

B1: CR6261 (antibody, V domains shown)
VH: EVQLVESGAEVKKPGSSVKVSCKASGGPFRSYAISWVRQAPGQGPEWMGGIIPIFGTTKYAPKFQGRVTITADDFAGTVYMELSSLRSEDTAMYYCAKHMGYQVRETMDVWGKGTTVTVSS
VL: QSVLTQPPSVSAAPGQKVTISCSGSSSNIGNDYVSWYQQLPGTAPKLLIYDNNKRPSGIPDRFSGSKSGTSATLGITGLQTGDEANYYCATWDRRPTAYVVFGGGTKLTVLG
In the case of B1, the fold increase of ratio over parental SEQ ID NO: 6 [1] is reported as 1 fold, the ratio binding signal/HTRF signal [1] is reported as 17.4 and the fold increase of ratio over parental SEQ ID NO: 6 [2] is reported as 1 fold. For the same binder, the ratio binding signal/HTRF signal [2] was 5.94.
